# Values quoted from earlier work in publication PMC12571840.
# Legend:
# CRHR1 (Homo sapiens) = CRHR1 (Homo sapiens) (UniProt P34998)
# CRHR2 (Homo sapiens) = CRHR2 (Homo sapiens) (UniProt Q13324)
# Sequence of UniProt Q13324 (Q13324 20-411): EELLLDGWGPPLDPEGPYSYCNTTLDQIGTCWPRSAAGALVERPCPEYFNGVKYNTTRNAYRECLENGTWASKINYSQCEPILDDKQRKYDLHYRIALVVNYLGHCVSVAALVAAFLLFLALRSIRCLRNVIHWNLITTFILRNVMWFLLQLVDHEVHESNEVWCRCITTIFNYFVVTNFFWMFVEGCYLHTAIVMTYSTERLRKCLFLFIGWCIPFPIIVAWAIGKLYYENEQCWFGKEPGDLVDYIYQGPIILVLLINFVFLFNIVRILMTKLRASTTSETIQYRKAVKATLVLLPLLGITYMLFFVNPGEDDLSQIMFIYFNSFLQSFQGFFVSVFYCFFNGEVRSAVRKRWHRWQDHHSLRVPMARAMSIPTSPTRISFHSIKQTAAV
# Sequence of UniProt P34998 (P34998 24-415): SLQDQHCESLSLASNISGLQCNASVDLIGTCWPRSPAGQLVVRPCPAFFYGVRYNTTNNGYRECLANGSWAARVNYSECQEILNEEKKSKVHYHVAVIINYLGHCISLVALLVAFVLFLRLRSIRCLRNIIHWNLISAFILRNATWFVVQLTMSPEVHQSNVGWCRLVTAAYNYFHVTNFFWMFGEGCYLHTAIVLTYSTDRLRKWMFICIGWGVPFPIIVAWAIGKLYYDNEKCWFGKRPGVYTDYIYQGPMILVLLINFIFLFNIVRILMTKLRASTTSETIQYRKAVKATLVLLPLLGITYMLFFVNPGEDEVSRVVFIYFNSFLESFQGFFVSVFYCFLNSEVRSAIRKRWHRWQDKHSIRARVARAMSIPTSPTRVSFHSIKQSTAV
substance,measurement,setting,value
CRH (from UniProt P06850),Ki,CRHR1 (Homo sapiens),0.95 nM
same,Ki,CRHR2 (Homo sapiens),13 nM
